From patent US20260242485A1 (LEPU BIOPHARMA, published 2026) come the findings set out here.

Test [1] concerns the target T1, Recombinant cyno CD16 ECD his tag protein (cynomolgus, UniProt Q8SPW2 17-208).
T1 construct: extracellular domain; Bought protein; also called cynoCD16-his; cynomolgus CD16-his
Description: ELISA, plate-coated his-tagged antigen 2 ug/mL. In general terms: In an ELISA, binding on a coated surface is turned into a signal by an enzyme label.

For test [2], the target named is T2, hCD16A-158V-his protein (human, UniProt P08637 17-208).
T2 construct: extracellular domain; Bought protein; also called human CD16A-158V-his; Human CD16A-158V (protein)
Description: ELISA, plate-coated his-tagged antigen 2 ug/mL.

For test [3], the target named is T3, human CD16B-NA2 ECD his tag protein (human, UniProt O75015 17-200).
T3 construct: extracellular domain; Bought protein; also called hCD16B-NA2-his; hCD16B-NA2 protein
Description: ELISA, hCD16B-NA2-his coated at 2 ug/mL, OD450. How it is done: In order to determine the binding ability of the chimeric Abs to human CD16A protein, ELISA-based binding assay was performed as followed. […] The mixture was incubated for 1 hour at room temperature (RT). The primary antibody was recognized by a detective antibody against human IgG Fc which was conjugated with horseradish peroxidase (HRP) (Jackson Immuno, Cat. No. 109-035-008). Tetramethylbenzidine (TMB), a substrate of HRP, was added to the wells to visualize the binding signal. After sufficient color development, stop solution was added to the wells. The absorbance of the signal was detected at 450 nm with Envision multilabel plate readers (PerkinElemer). The graph and statistics analysis were generated with four-parameter nonlinear regression curve fit in Graphpad Prism 9 software.
In order to determine the binding ability of the chimeric Abs to human CD16B protein, ELISA binding assay was performed as previously described. Three spliced isoforms of CD16B including human CD16B-NA1 ECD his tag protein (hCD16B-NA1-his, Acro Bio, Cat: No. CDB-H5227), human CD16B-NA2 ECD his tag protein (hCD16B-NA2-his, Acro Bio, Cat: No. CDB-H82Ea) and human CD16B-SH-his protein, were used as the coating antigens at 2 μg/mL.

The target in the next test is T4, hCD16A-158F-his protein (human, UniProt P08637 17-208).
T4 construct: Bought protein
Put plainly: SPR (Biacore 8K), antibody captured on Protein A chip, antigen at 50 nM. How it is done:
(§1) The binding affinity of the chimeric antibodies to human CD16A was determined with Biacore™. Briefly, the antibodies were captured with a Protein A chip. […] The antigen was allowed to dissociate for 500 s. The experiment was carried out on a Biacore™ 8K. Data analysis was carried out using Biacore™ 8K evaluation software.
In general terms: Surface plasmon resonance follows binding to a sensor surface in real time, without labels.

Test [4] deals with T2, hCD16A-158V-his protein. The test is described as above. How it is done: as §1
In test [5] the target is T5, human CD32B expressed on CHO-K1 cells (human, UniProt P31994 43-310).
T5 construct: whole, on cells; also called hCD32B
T5 sequence (looked up): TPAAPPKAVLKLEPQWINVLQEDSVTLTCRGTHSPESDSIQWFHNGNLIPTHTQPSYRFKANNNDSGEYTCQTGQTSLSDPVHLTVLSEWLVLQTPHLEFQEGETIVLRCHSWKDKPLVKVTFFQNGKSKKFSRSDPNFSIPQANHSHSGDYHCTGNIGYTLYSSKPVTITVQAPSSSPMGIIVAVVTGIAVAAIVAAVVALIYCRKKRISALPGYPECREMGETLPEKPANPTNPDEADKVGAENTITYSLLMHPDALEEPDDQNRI
Description: flow cytometry, CHO-K1-hCD32B cells, geometric mean. How it is done: In order to evaluate the binding activity of the chimeric mAbs to human CD16A expressed on cells, cell-based binding assay was employed as followed. […] The antibody dilutions were incubated with 1×10⁵ indicated cells in the 96-well microplate for one hour at 4° C. The antibodies binding to the antigen on the cell surface were detected with PE fluorophore-conjugated anti-human IgG Fc secondary antibodies (ThermoFisher scientific, Cat. No. 12-4998-82) at a dilution rate of 1:1000. Cells were analyzed by flow cytometer LSRFortessa Cell Analyzer (BD Biosciences). Data were analyzed with Flowjo 10.0 software. The graph and statistics analysis were generated with four-parameter nonlinear regression curve fit in Graphpad Prism 9 software.
To exclude the non-specific binding of the CD16A chimeric antibody to human CD16B and CD32B expressed on cells, cell-based binding assay was performed as described above. Firstly, CHO-K1 cells were stably transferred with one human CD16B spliced isoform hCD16B-NA1 and human CD32B. Then, the cells were incubated with the indicated concentrations of CD16A chimeric antibodies.

T2 sequence (P08637 17-208 F176V): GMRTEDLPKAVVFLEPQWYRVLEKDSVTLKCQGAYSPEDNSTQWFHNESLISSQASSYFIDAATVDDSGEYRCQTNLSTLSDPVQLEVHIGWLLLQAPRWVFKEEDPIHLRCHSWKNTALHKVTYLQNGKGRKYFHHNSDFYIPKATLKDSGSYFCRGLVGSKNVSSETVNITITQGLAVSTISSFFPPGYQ
T4 sequence (P08637 17-208 limits assumed): as the sequence (P08637 17-208 F176V) above, with V160F counted along it
T3 sequence (O75015 17-200 N65S limits assumed): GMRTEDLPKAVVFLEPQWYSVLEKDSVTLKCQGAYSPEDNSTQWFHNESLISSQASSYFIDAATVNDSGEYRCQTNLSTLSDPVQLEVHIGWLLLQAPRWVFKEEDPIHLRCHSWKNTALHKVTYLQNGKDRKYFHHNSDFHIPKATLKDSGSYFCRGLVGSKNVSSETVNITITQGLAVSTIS
T1 sequence (Q8SPW2 17-208): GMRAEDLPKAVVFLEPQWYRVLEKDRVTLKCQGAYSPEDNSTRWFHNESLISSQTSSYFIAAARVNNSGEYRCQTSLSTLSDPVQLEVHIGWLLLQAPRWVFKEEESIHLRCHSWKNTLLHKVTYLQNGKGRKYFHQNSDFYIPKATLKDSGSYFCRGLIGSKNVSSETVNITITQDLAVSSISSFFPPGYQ

B1: 45H6E8-hIgG1 LALAPG (antibody)
heavy: EVQLQQSGAELVRSGASVKLSCTASGFNIKDYYMQWVKQRPEQGLEWIGWIDPENGDTEYAPKFQGKATMTADTSSNTAYLQLSSLTSEDTAVYYCTTGGNYVDWGQGTTLTVSSASTKGPSVFPLAPSSKSTSGGTAALGCLVKDYFPEPVTVSWNSGALTSGVHTFPAVLQSSGLYSLSSVVTVPSSSLGTQTYICNVNHKPSNTKVDKKVEPKSCDKTHTCPPCPAPEAAGGPSVFLFPPKPKDTLMISRTPEVTCVVVDVSHEDPEVKFNWYVDGVEVHNAKTKPREEQYNSTYRVVSVLTVLHQDWLNGKEYKCKVSNKALGAPIEKTISKAKGQPREPQVYTLPPSREEMTKNQVSLTCLVKGFYPSDIAVEWESNGQPENNYKTTPPVLDSDGSFFLYSKLTVDKSRWQQGNVFSCSVMHEALHNHYTQKSLSLSPGK
light: DIVMTQSQKFMSTSVGDRVSITCKASQNVGTAVAWYQQKPGQSPKLLIYSASNRYTGVPDRFTGSGSGTDFTLTISNMQSEDLADYFCQQYSSYPLLTFGAGTNLELKRTVAAPSVFIFPPSDEQLKSGTASVVCLLNNFYPREAKVQWKVDNALQSGNSQESVTEQDSKDSTYSLSSTLTLSKADYEKHKVYACEVTHQGLSSPVTKSFNRGEC
notes: also called 45H6E8 chimeric antibody
One may read the EC50 as the concentration that produces a half-maximal response. By Kd is commonly meant the equilibrium constant for the complex coming apart. Higher therefore signals a looser complex. Broadly, the koff is a measure of how fast the partners let go of each other. In general, kon refers to a measure of how fast the partners come together. A lower kon goes with slow association. For B1, the values for the concentration for a half-maximal effect (EC50) (in test [1]; with hCD16A-158V-his protein [2]) were 0.68 nM and 0.1 nM, respectively. For the same molecule, the binding result in test [3] was “no binding (tested: 20 nM)”; in test [5], “no binding (tested: 100 nM)”. In addition, the Kd in the test with hCD16A-158F-his protein was 1.17 nM; with hCD16A-158V-his protein [4] it was 1.86 nM. For the same molecule, the koff was determined as 0.00455 s⁻¹ in the test with hCD16A-158F-his protein and 0.00655 s⁻¹ with hCD16A-158V-his protein [4]. Moreover, the kon with hCD16A-158F-his protein came to 3.9e+06 M⁻¹ s⁻¹; in the test with hCD16A-158V-his protein [4] it was 3.52e+06 M⁻¹ s⁻¹.

B2: P2C47-hIgG1 LALAPG (antibody)
heavy: QVQLVQSGAEVKKPGESLKVSCKASGYTFTSYYMHWVRQAPGQGLEWMGAIEPMYGSTSYAQKFQGRVTMTRDTSTSTVYMELSSLRSEDTAVYYCARGSAYYYDFADYWGQGTLVTVSSASTKGPSVFPLAPSSKSTSGGTAALGCLVKDYFPEPVTVSWNSGALTSGVHTFPAVLQSSGLYSLSSVVTVPSSSLGTQTYICNVNHKPSNTKVDKKVEPKSCDKTHTCPPCPAPEAAGGPSVFLFPPKPKDTLMISRTPEVTCVVVDVSHEDPEVKFNWYVDGVEVHNAKTKPREEQYNSTYRVVSVLTVLHQDWLNGKEYKCKVSNKALGAPIEKTISKAKGQPREPQVYTLPPSREEMTKNQVSLTCLVKGFYPSDIAVEWESNGQPENNYKTTPPVLDSDGSFFLYSKLTVDKSRWQQGNVFSCSVMHEALHNHYTQKSLSLSPGK
light: SYVLTQPSSVSVAPGQTATISCGGHNIGSKNVHWYQQRPGQSPVLVIYQDNKRPSGIPERFSGSNSGNTATLTISGTQAMDEADYYCQVWDNYSVLFGGGTKLTVLGQPKANPTVTLFPPSSEELQANKATLVCLISDFYPGAVTVAWKADGSPVKAGVETTKPSKQSNNKYAASSYLSLTPEQWKSHRSYSCQVTHEGSTVEKTVAPTECS
notes: also called benchmark antibody P2C47
Take B2: the results for the EC50 (in test [1]; in the test with hCD16A-158V-his protein [2]) were 0.73 nM and 0.12 nM, respectively. For the same molecule, the binding result in test [3] is “no binding (tested: 20 nM)”; in test [5], “no binding (tested: 100 nM)”. The results for the Kd with hCD16A-158F-his protein and with hCD16A-158V-his protein [4] were 2.23 nM and 1.68 nM, respectively. Also, the figures for the koff with hCD16A-158F-his protein and with hCD16A-158V-his protein [4] were 0.002 s⁻¹ and 0.00135 s⁻¹, respectively. In addition, the results for the kon in the test with hCD16A-158F-his protein and in the test with hCD16A-158V-his protein [4] were 897000 M⁻¹ s⁻¹ and 804000 M⁻¹ s⁻¹, respectively.
